Laboratory results from IntAct's records for PubMed 19644450.

Assays:
[1] = target: SPAG9, O60271-2
[2] = target: SPAG9, O60271-2; remark: listed apart in the source

Sequence of SPAG9, O60271-2 (O60271 other isoform, or with tags, fused parts or gaps): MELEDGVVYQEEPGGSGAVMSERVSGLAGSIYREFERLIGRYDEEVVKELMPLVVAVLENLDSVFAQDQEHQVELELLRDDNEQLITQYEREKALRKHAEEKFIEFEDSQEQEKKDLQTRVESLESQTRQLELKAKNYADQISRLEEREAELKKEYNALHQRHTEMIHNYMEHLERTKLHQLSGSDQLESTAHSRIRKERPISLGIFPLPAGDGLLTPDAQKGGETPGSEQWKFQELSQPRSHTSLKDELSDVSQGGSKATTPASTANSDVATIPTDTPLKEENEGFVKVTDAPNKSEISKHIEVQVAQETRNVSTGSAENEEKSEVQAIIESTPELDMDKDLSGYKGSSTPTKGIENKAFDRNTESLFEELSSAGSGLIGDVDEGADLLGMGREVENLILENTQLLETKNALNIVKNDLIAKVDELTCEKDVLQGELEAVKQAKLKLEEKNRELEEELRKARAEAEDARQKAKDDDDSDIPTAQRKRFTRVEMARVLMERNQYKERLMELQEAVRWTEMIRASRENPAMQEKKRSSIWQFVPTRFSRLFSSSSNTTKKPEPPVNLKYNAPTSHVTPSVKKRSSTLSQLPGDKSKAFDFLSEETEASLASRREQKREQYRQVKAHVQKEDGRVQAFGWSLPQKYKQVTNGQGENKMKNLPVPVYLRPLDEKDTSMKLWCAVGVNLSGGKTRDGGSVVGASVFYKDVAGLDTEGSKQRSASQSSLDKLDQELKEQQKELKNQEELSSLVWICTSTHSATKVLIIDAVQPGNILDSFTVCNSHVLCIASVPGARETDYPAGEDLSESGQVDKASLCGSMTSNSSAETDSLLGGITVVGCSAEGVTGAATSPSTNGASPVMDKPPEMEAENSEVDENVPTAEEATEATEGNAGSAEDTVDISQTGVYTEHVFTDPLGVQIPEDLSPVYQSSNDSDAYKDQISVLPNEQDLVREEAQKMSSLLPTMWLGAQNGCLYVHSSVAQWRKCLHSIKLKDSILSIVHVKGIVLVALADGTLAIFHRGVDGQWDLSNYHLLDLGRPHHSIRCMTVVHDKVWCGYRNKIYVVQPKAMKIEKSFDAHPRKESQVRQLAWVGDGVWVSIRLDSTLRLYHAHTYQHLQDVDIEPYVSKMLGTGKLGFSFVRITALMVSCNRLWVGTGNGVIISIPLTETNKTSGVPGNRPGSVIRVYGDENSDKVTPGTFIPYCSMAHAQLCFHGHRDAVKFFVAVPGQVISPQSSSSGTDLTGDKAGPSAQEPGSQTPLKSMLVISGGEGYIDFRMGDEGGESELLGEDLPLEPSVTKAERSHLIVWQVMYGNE
Sequence of ADP-ribosylation factor 1 (Homo sapiens), P84077 S62K (P84077 whole entry S62K): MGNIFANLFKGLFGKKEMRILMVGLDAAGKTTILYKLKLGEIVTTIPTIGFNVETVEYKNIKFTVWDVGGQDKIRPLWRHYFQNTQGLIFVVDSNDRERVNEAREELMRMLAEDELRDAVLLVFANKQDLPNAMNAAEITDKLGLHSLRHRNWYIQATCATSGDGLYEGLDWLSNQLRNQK
Sequence of ADP-ribosylation factor 1 (Homo sapiens), P84077 E57T (P84077 whole entry E57T): as the sequence (P84077 whole entry S62K) above, with E57T, K62S counted along it

Question: “ADP-ribosylation factor 1 (Homo sapiens), P84077 T64N” was tested. Which “effect of a mutation on the interaction” value [1] did it give?
Answer: Its value is “increasing interaction”.

Question: How did the “effect of a mutation on the interaction” value [2] turn out when “ADP-ribosylation factor 1 (Homo sapiens), P84077 E57T” was run?
Answer: Its value is “increasing interaction”.

Question: Which “effect of a mutation on the interaction” value [2] does the source give for “ADP-ribosylation factor 1 (Homo sapiens), P84077 Q83T” here?
Answer: Its value is “increasing interaction”.

Question: How did the “effect of a mutation on the interaction” value [1] turn out when “ADP-ribosylation factor 1 (Homo sapiens), P84077 S62K” was run?
Answer: The value was “increasing interaction”.
